{
  "source": "paper doi:10.1101/2021.05.10.443397",
  "biological_target": "clamp-stabilised KoRV envelope (Env-clamp) (koala retrovirus (KoRV-A))",
  "test": "SEC + other: negative-stain electron microscopy",
  "data": [
    {"substance": "clamp-stabilised KoRV envelope (Env-clamp)", "values": [
      {"measurement": "stoichiometry N", "result": 3}
    ]}
  ]
}
